According to patent US8067155B2, “Receptor tyrosine kinase assays” (DiscoveRx Corporation, priority 2008, dated 2011):
Blank lines part the entries; values can stand above or below the molecule they belong to.

Key:
[1] = biological target: T1, insulin receptor (INSR) (Homo sapiens, UniProt P06213); assay: PathHunter INSR-PK / SH2-containing protein-EA assay in U2OS cells, agonist mode; assay type: cell-based; details: U2OS INSR-PK cells, 10,000 cells/well, 3 hours at room temperature
T1 construct: host or cells: U2OS

[2] = biological target: T2, TrkC (Homo sapiens, UniProt Q16288); assay: PathHunter TrkC-PK / SH2-containing protein-EA assay in U2OS cells, agonist mode; assay type: cell-based; details: 3 hours at room temperature
T2 construct: host or cells: U2OS
Method: FIG. 8 is a graph of the dose response in U2OS cells of TrkC fused to a low affinity small fragment of β-galactosidase (TrkC-PK). Cells were plated in a 384-well plate at 10,000 cells/well, stimulated with NT3 (Peprotech, Cat #/450-03), a known ligand for TrkC, for 3 hours at room temperature according to the assay procedure provided. Following stimulation, detection reagents were added and signal was detected after 1 hour using the PathHunter® Detection Kit (93-0001).
(§1) Generally, the expression constructs for the fusion proteins includes at least (in order of 5′ to 3′) a promoter, followed by the receptor or SH2 domain, followed by a linker, followed by either the EA or PK. […] SH2-EA complex formation with the RTK was detected with 50% (v/v) of PathHunter® Detection Reagent (Dx 93-0001, PathHunter reagents are available from DiscoveRx, Corp., Fremont, Calif.) (Lysis buffer active ingredient 1% CHAPS, Emerald II™ and Galacton Star™ are from Applied Biosystems).
(§2) 10K cells/well TrkC-PK SH2-containing protein-EA double stable cells were plated in a 384-well plate, stimulated with NT3 (Peprotech, Cat #/450-03), a known ligand for TrkC for 3 hours at room temperature according to the assay procedure provided. Following stimulation, detection reagents were added and signal was detected after 1 hour using the PathHunter® Detection Kit (93-0001).

[3] = biological target: TrkC fused to a low affinity small fragment of β-galactosidase (TrkC-PK) (UniProt Q16288); assay: cell-based or functional assay
[4] = biological target: TrkB fused to a low affinity small fragment of β-galactosidase (TrkB-PK) (UniProt Q16620); assay: cell-based or functional assay
[5] = biological target: T3, TrkB (Homo sapiens, UniProt Q16620); assay: PathHunter TrkB-PK / SH2-containing protein-EA assay in U2OS cells, agonist mode; assay type: cell-based; details: 3 hours at room temperature
T3 construct: host or cells: U2OS
Method: FIG. 7 is a graph of the dose response in U2OS cells of TrkB fused to a low affinity small fragment of β-galactosidase (TrkB-PK). Cells were plated in a 384-well plate at 10,000 cells/well stimulated with BDNF (Peprotech, Cat #/450-02), a known ligand for TrkB, for 3 hours at room temperature according to the assay procedure provided. Following stimulation, detection reagents were added and signal was detected after 1 hour using the PathHunter® Detection Kit (93-0001).
as §1
as §2, with “cells/well TrkB-PK” for “cells/well TrkC-PK”, “stable cell” for “stable cells”, “with BDNF” for “with NT3”, “Cat #/450-02),” for “Cat #/450-03),”, “for TrkB” for “for TrkC”

[6] = biological target: G-CSFR (granulocyte-colony stimulating factor receptor) fused to a low affinity small fragment of … (UniProt Q99062 25-836, tyrosine-phosphorylated on activation (by Jak2); sites not stated); assay: cell-based or functional assay
Chain of G-CSFR (granulocyte-colony stimulating factor receptor) fused to a low affinity small fragment of … (Q99062 other isoform, or with tags, fused parts or gaps): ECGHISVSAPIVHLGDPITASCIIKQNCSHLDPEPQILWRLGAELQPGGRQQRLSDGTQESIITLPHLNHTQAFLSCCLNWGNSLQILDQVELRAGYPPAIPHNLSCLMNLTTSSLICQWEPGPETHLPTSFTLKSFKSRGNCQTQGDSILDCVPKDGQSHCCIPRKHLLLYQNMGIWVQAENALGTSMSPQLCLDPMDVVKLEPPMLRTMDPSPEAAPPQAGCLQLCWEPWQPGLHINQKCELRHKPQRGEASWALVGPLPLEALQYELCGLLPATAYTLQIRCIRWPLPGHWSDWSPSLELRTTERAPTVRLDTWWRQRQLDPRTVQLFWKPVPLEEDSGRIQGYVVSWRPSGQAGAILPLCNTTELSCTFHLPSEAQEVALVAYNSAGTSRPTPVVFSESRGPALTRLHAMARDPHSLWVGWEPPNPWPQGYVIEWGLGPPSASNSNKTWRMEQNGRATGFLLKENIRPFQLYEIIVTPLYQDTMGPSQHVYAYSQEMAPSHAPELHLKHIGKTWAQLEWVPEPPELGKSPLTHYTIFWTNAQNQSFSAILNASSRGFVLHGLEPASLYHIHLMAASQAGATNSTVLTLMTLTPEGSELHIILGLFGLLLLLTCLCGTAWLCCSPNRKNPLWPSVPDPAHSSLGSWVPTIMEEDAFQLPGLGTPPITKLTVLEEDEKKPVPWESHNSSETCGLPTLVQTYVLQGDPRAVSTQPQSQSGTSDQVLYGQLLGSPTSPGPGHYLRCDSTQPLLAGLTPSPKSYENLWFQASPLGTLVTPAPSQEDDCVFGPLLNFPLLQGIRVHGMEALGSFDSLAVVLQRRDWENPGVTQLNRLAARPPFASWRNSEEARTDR

Molecule: IGF1: IGF1 (Peprotech, Cat AF-100-11), a known ligand for IGF1R
EC50 [1]: 2.0 ng/mL

Molecule: NT3: NT3 (Peprotech, Cat 450-03), a known ligand for TrkC
EC50 ([2]; U2OS TrkC-PK cells, 10,000 cells/well): 7 ng/mL
assay window ([2]; U2OS TrkC-PK cells): 8.1 fold

B1: BDNF: BDNF (Peprotech, Cat 450-02), a known ligand for TrkB (protein, UniProt P23560 19-247, looked up)
Neurotrophic factor BDNF …: APMKEANIRGQGGLAYPGVRTHGTLESVNGPKAGSRGLTSLADTFEHVIEELLDEDQKVRPNEENNKDADLYTSRVMLSSQVPLEPPLLFLLEEYKNYLDAANMSMRVRRHSDPARRGELSVCDSISEWVTAADKKTAVDMSGGTVTVLEKVPVSKGQLKQYFYETKCNPMGYTKEGCRGIDKRHWNSQCRTTQSYVRALTMDSKKRIGWRFIRIDTSCVCTLTIKRGR
EC50 ([5]; U2OS TrkB-PK cells, 10,000 cells/well): 4.21 ng/mL
assay window ([5]; U2OS TrkB-PK cells): 4.0 fold

B2: G-CSF (Peprotech 300-23) (ligand, UniProt P09919-2 31-204, looked up)
chain: TPLGPASSLPQSFLLKCLEQVRKIQGDGAALQEKLCATYKLCHPEELVLLGHSLGIPWAPLSSCPSQALQLAGCLSQLHSGLFLYQGLLQALEGISPELGPTLDTLQLDVADFATTIWQQMEELGMAPALQPTQGAMPAFASAFQRRAGGVLVASHLQSFLEVSYRVLRHLAQP
EC50 of the G-CSF dose response (PathHunter β-galactosidase complementation of CSF3R-PK and SHC1-EA in U2OS cells, Jak2 construct) [6]: 4 ng/mL
assay window of the G-CSF dose response (PathHunter β-galactosidase complementation of CSF3R-PK and SHC1-EA in U2OS cells, Jak2 construct) [6]: 7 fold

More lines, now with the values ahead:

EC50 of the NT3 dose response (PathHunter β-galactosidase complementation of TrkC-PK and SH2-containing protein-EA in U2OS cells) [3]: 7 ng/mL
assay window of the NT3 dose response (PathHunter β-galactosidase complementation of TrkC-PK and SH2-containing protein-EA in U2OS cells) [3]: 8.1 fold
Molecule: NT3 (Peprotech, Cat #/450-03) (from UniProt P20783 139-257) (ligand)

EC50 of the BDNF dose response (PathHunter β-galactosidase complementation of TrkB-PK and SH2-containing protein-EA in U2OS cells) [4]: 4.21 ng/mL
assay window of the BDNF dose response (PathHunter β-galactosidase complementation of TrkB-PK and SH2-containing protein-EA in U2OS cells) [4]: 4 fold
Molecule: BDNF (Peprotech, Cat #/450-02) (from UniProt P23560 129-247) (ligand)
